Positions count from the first letter of the chain named.
T1: biotinylated cynomolgus monkey VWF cysteine knot (CK) domain construct (cynomolgus monkey, biotinylated in vitro (BirA) on the biotinylation tag; one N-glycan)
T1 construct: Expressed in HEK293 EBNA cells; disulfide-linked homodimer; also called cyno VWF CK; cyno VWF CK domain; not shown: in vitro biotinylation tag, HRV-3C site and 3 VWF residues before the CK domain
T1 chain: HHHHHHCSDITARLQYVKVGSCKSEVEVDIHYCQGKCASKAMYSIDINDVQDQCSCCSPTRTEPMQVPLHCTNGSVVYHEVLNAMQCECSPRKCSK

B1: Lib1_P1_C6_scFv (scFv)
scFv: QVQLVQSGAEVKKPGASVKVSCKVSGYTFASHYIHWVRQAPGKGLEWMGGMDPATGQTIYAQKFQGRVTMTEDTSTDTAYMELSSLKSEDTAVYYCAKGDRSSWYEVLSFQHWGQGTLVTVSSSGGSTITSYNVYYTKLSSSGTDIQMTQSPSSVSASVGDRVTITCRASQGISTDLAWYQQKPGKAPKLLIYDASILQRGVPSRFSGSGSGTDFTLTISSLQPEDFANYYCQQVRTYPFTFGGGTKVEIK
notes: VH-linker-VL; not shown: C-terminal 3xFLAG and SV5 tags
B2: 16_Lib8_scFv (scFv)
scFv: EVQLVESGGGLVQPGRSLRLSCAASGFRFDEYDMHWVRQAPGKGLEWVSAISSESASIDYADSVEGRFTISRDNAKNSLYLQMNSLRAEDTAVYYCARDGAYGDYFDYWGQGTMVTVSSSGGSTITSYNVYYTKLSSSGTDIQMTQSPSSLSASVGDRVTITCRASQDIKSWLAWYQQKPGKAPKLLIYGASTLQSGVPSRFSGSGSGTDFTLTISSLQPEDVATYYCQQSYSAPYTFGGGTKVEIK
notes: as for B1
B3: Lib1_P1_D1_scFv (scFv)
scFv: QVQLVQSGAEVKKPGASVKVSCKVSGDTFTDRYIHWVRQAPGKGLEWMGGINTIFGTAIYAQKFQGRVTMTEDTSTDTAYMELSSLKSEDTAVYYCAREGATVSTNFDYWGQGTLVTVSSSGGSTITSYNVYYTKLSSSGTDIQMTQSPSSVSASVGDRVTITCRASQDIRKSLAWYQQKPGKAPKLLIYDISNRPSGVPSRFSGSGSGTDFTLTISSLQPEDFANYYCQQGYSAPYGFGGGTKVEIK
notes: as for B1
B4: 4142_Lib1_scFv (scFv)
scFv: QVQLVQSGAEVKKPGASVKVSCKVSGYPFTSSGIHWVRQAPGKGLEWMGGVIPLFGTANYAQKFQGRVTMTEDTSTDTAYMELSSLKSEDTAVYYCARIRVSSGWYRDYGMDVWGQGTTVTVSSSGGSTITSYNVYYTKLSSSGTDIQMTQSPSSVSASVGDRVTITCRASQDITNDLAWYQQKPGKAPKLLIYDASRLQSGVPSRFSGSGSGTDFTLTISSLQPEDFANYYCQQTFTTPLTFGGGTKVEIK
notes: as for B1
B5: 7046_Lib8_scFv (scFv)
scFv: EVQLVESGGGLVQPGRSLRLSCAASGFNFHNYDMHWVRQAPGKGLEWVSAISGSGYTADYADSVEGRFTISRDNAKNSLYLQMNSLRAEDTAVYYCAKSHSSGWSSAFDIWGQGTMVTVSSSGGSTITSYNVYYTKLSSSGTDIQMTQSPSSLSASVGDRVTITCRASQTIGYWLAWYQQKPGKAPKLLIYDATNLATGVPSRFSGSGSGTDFTLTISSLQPEDVATYYCQHYNPYSQVTFGGGTKVEIK
notes: as for B1
B6: Lib4_P2_H3_scFv (scFv)
scFv: QVQLQESGPGLVKPSQTLSLTCTVSGSTFGDYAWSWIRQPPGKGLEWIGYINHIGNADYNPSLKSRVTMSVDTSKNQFSLKVNSVTAADTAVYYCARDGVESPEVPNYYYYGMDVWGQGTTVTVSSSGGSTITSYNVYYTKLSSSGTEIVMTQSPATLSLSPGERATLSCRASHSIGSNLAWYQQKPGQAPRLLIYDATNRAPGIPARFSGSGSGTDFTLTISSLEPEDFAVYYCQQSYTNPTFGGGTKVEIK
notes: as for B1
B7: Lib4_P2_A11_scFv (scFv)
scFv: QVQLQESGPGLVKPSQTLSLTCTVSGVTFSSYGWSWIRQPPGKGLEWIGYVDTSGSTDYNPSLKSRVTMSVDTSKNQFSLKVNSVTAADTAVYYCARTTYYYDSSGFARGWFDPWGQGTLVTVSSSGGSTITSYNVYYTKLSSSGTEIVMTQSPATLSLSPGERATLSCRASRSISTNLAWYQRKPGQAPRLLIYDTSNRAPGIPARFSGSGSGTDFTLTISSLEPEDFAVYYCLQYDVSPYTFGGGTKVEIK
notes: VH-linker-VL; also called Lib4_P2_All; not shown: C-terminal 3xFLAG and SV5 tags
B8: Lib1_P1_A2_scFv (scFv)
scFv: QVQLVQSGAEVKKPGASVKVSCKVSEGTLSRHYINWVRQAPGKGLEWMGGINAKSGATIYAQKFQGRVTMTEDTSTDTAYMELSSLKSEDTAVYYCAKDTGDDILTDYSDAFDIWGQGTMVTVSSSGGSTITSYNVYYTKLSSSGTDIQMTQSPSSVSASVGDRVTITCRASQNIGTSLAWYQQKPGKAPKLLIYGASNLESGVPSRFSGSGSGTDFTLTISSLQPEDFANYYCLQYNDWPPLYSFGGGTKVEIK
notes: as for B1
B9: 1374_Lib8_scFv (scFv)
scFv: EVQLVESGGGLVQPGRSLRLSCAASGVDFSTYAMHWVRQAPGKGLEWVSAISSSGAYTDYADSVEGRFTISRDNAKNSLYLQMNSLRAEDTAVYYCATDRGPFSGYGTQGWFDPWGQGTLVTVSSSGGSTITSYNVYYTKLSSSGTDIQMTQSPSSLSASVGDRVTITCRASQTIRSYLAWYQQKPGKAPKLLIYGASDLQSGVPSRFSGSGSGTDFTLTISSLQPEDVATYYCQQYANFPITFGGGTKVEIK
notes: as for B1
B10: 1405_Lib8_scFv (scFv)
scFv: B9 scFv with Q173R, T174D, R176T, G196H, D199T, Q201E, S202A, A238G, N239D, I242P
notes: as for B1
B11: Lib4_P2_A5_scFv (scFv)
scFv: QVQLQESGPGLVKPSQTLSLTCTVSGSSISSSSDYWSWIRQPPGKGLEWIGYIDISGDADYNPSLKSRVTMSVDTSKNQFSLKVNSVTAADTAVYYCARHLSSGWYGTYYFDYWGQGTLVTVSSSGGSTITSYNVYYTKLSSSGTEIVMTQSPATLSLSPGERATLSCRASQNIHSNLAWYQQKPGQAPRLLIYDASSRATGIPARFSGSGSGTDFTLTISSLEPEDFAVYYCQQGYTKPLTFGGGTKVEIK
notes: as for B1
B12: 9621_Lib8_scFv (scFv)
scFv: EVQLVESGGGLVQPGRSLRLSCAASGFSFSMYAMHWVRQAPGKGLEWVSAISPSGDATDYADSVEGRFTISRDNAKNSLYLQMNSLRAEDTAVYYCARGMQDYGHYYYYYMDVWGKGTTVTVSSSGGSTITSYNVYYTKLSSSGTDIQMTQSPSSLSASVGDRVTITCRASQDISTSLAWYQQKPGKAPKLLIYGASSLETGVPSRFSGSGSGTDFTLTISSLQPEDVATYYCQQGYIAPRTFGGGTKVEIK
notes: as for B1
B13: 8226_Lib8_scFv (scFv)
scFv: EVQLVESGGGLVQPGRSLRLSCAASGFNFHNYDMHWVRQAPGKGLEWVSAISGGAVSTDYADSVEGRFTISRDNAKNSLYLQMNSLRAEDTAVYYCARSSWYGGQIDFWGQGTLVTVSSSGGSTITSYNVYYTKLSSSGTDIQMTQSPSSLSASVGDRVTITCRASQDISGWLAWYQQKPGKAPKLLIYAASSLQDGVPSRFSGSGSGTDFTLTISSLQPEDVATYYCQQSYRIPSTFGGGTKVEIK
notes: as for B1
B14: Lib8_P4_C10_scFv (scFv)
scFv: EVQLVESGGGLVQPGRSLRLSCAASGFNFHNYDMHWVRQAPGKGLEWVSAISGSSDTMDYADSVEGRFTISRDNAKNSLYLQMNSLRAEDTAVYYCVRASWYGTFFDYWGQGTLVTVSSSGGSTITSYNVYYTKLSSSGTDIQMTQSPSSLSASVGDRVTITCRASQDISGWLAWYQQKPGKAPKLLIYAASSLQDGVPSRFSGSGSGTDFTLTISSLQPEDVATYYCQQSYRIPSTFGGGTKVEIK
notes: as for B1
B15: 1081_Lib8_scFv (scFv)
scFv: EVQLVESGGGLVQPGRSLRLSCAASGFNFHNYDMHWVRQAPGKGLEWVSAISGGAVSTDYADSVEGRFTISRDNAKNSLYLQMNSLRAEDTAVYYCARSSWYGGQIDFWGQGTLVTVSSSGGSTITSYNVYYTKLSSSGTDIQMTQSPSSLSASVGDRVTITCRASESVSSWLAWYQQKPGKAPKLLIYGASTLEGGVPSRFSGSGSGTDFTLTISSLQPEDVATYYCQQAYRTPVTFGGGTKVEIK
notes: as for B1
B16: 9301_Lib8_scFv (scFv)
scFv: EVQLVESGGGLVQPGRSLRLSCAASGFNFHNYDMHWVRQAPGKGLEWVSAISGSGYTADYADSVEGRFTISRDNAKNSLYLQMNSLRAEDTAVYYCAKSHSSGWSSAFDIWGQGTMVTVSSSGGSTITSYNVYYTKLSSSGTDIQMTQSPSSLSASVGDRVTITCRASQTIGYWLAWYQQKPGKAPKLLIYDASVPESGVPSRFSGSGSGTDFTLTISSLQPEDVATYYCQQTLSSPWTFGGGTKVEIK
notes: as for B1
B17: Lib1_P1_A6_scFv (scFv)
scFv: QVQLVQSGAEVKKPGASVKVSCKVSGSTFSNYAIHWVRQAPGKGLEWMGGIVPLSGTAIYAQKFQGRVTMTEDTSTDTAYMELSSLKSEDTAVYYCARDQGESSGWYAIYYGMDVWGQGTTVTVSSSGGSTITSYNVYYTKLSSSGTDIQMTQSPSSVSASVGDRVTITCRASQGIGTWLAWYQQKPGKAPKLLIYGSSSRASGVPSRFSGSGSGTDFTLTISSLQPEDFANYYCQQSYGKPTFGGGTKVEIK
notes: as for B1
B18: 5802_Lib4_scFv (scFv)
scFv: QVQLQESGPGLVKPSQTLSLTCTVSGYSISSGDYHWSWIRQPPGKGLEWIGYINPSGSADYNPSLKSRVTMSVDTSKNQFSLKVNSVTAADTAVYYCARDGVAATYYYYYGMDVWGQGTTVTVSSSGGSTITSYNVYYTKLSSSGTEIVMTQSPATLSLSPGERATLSCRASHSIGSNLAWYQQKPGQAPRLLIYDATTRATGIPARFSGSGSGTDFTLTISSLEPEDFAVYYCQQAYSFPLTFGGGTKVEIK
notes: as for B1

What follows are binders tested against T2, biotinylated human VWF cysteine knot (CK) domain construct (human, UniProt P04275 2724-2813, biotinylated in vitro (BirA) on the biotinylation tag; one N-glycan) (assay: SPR, scFv captured via anti-SV5, CK domain injected, pH 5.5, apparent Kd;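 also: scFvs from crude yeast supernatants captured on chip-bound anti-SV5 antibody, Kd computed as koff divided by kon, dimeric CK construct likely makes affinity appear higher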).
T2 construct: Expressed in HEK293 EBNA cells; disulfide-linked homodimer; also called human VWF CK; human VWF CK domain; not shown: in vitro biotinylation tag, HRV-3C site and 3 VWF residues before the CK domain

Kd [nM] | Binder
1.43 | B1
1.05 | B2
0.338 | B3
0.634 | B4
1.16 | B5
0.075 | B6
0.033 | B7
0.076 | B8
0.043 | B9
0.389 | B10
0.123 | B11
2.28 | B12
1.38 | B13
0.487 | B14
0.274 | B15
0.039 | B16
0.045 | B17
1.09 | B18

The binders below were run against T2, biotinylated human VWF cysteine knot … (assay: SPR, scFv captured via anti-SV5, CK domain injected, pH 7.4, apparent Kd;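 also: scFvs from crude yeast supernatants printed on an amine-coupled anti-SV5 lawn, Kd computed as koff over kon, likely overestimating affinity because the CK construct is dimeric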).
Description: (§1) Briefly, a sensor chip was activated and coupled with an anti-SV5 mouse monoclonal antibody using amine coupling. The soluble scFvs in crude yeast supernatants were printed on the anti-SV5 lawn. […] From the measured association (kₒₙ) and dissociation (koff) rate constants, an apparent equilibrium dissociation constant (Kd=koff/kₒₙ) was estimated. Due to the dimeric state of the CK construct and consequent possibility for simultaneous binding of captured scFv to both monomers in the CK dimer, the SPR setup was expected to overestimate the binding affinity.

Kd [nM] | Binder
0.691 | B1
2.11 | B2
0.589 | B3
0.839 | B4
0.088 | B5
0.307 | B6
3.11 | B7
1.78 | B8
0.116 | B9
0.305 | B10
0.493 | B11
0.217 | B12
3.17 | B13
3.15 | B14
0.391 | B15
0.167 | B16
0.092 | B17
0.101 | B18

Biological target: T1, biotinylated cynomolgus monkey VWF …
Test: as above
Description: as §1

Kd [nM] | Binder
0.697 | B1
0.187 | B3
0.999 | B4
0.002 | B5
0.134 | B6
0.061 | B9
0.039 | B10
0.128 | B11
0.137 | B12
0.55 | B13
1.01 | B14
0.167 | B15
0.684 | B16
0.059 | B17
0.016 | B18

Reference: patent publication US20250154283A1 (published 2025)
